Key:
[1] = target: human 4-1BB on Jurkat-hu4-1BB-NFκB-luc2 reporter cells (human) (UniProt Q07011); experiment: cell-based or functional assay; parameters: unit not given beside the values
[2] = target: human PD-L1 on MKN45-huPD-L1 cells (human) (UniProt Q9NZQ7); experiment: flow cytometry on MKN45-huPD-L1 cells, area under the binding curve; parameters: unit not given beside the values
Chain of human PD-L1 on MKN45-huPD-L1 cells (human) (Q9NZQ7 19-290 limits assumed): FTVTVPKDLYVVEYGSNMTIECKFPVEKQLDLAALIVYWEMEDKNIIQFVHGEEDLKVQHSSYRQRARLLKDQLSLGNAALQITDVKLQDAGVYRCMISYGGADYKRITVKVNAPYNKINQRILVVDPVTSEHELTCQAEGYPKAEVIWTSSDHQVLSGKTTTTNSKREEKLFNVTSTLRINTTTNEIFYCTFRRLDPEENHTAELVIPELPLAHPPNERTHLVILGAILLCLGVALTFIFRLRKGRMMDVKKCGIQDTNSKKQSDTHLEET

Chain of human 4-1BB on Jurkat-hu4-1BB-NFκB-luc2 reporter cells (human) (Q07011 24-255): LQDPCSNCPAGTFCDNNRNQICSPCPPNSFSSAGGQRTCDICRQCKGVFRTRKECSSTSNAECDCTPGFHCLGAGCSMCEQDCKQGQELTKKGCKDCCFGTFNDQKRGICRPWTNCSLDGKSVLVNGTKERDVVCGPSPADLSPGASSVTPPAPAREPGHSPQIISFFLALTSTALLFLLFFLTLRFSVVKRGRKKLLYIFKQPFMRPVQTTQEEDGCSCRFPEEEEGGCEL

Substance: DP47 huIgG1 P329G LALA (antibody)
- AUC of NFκB-activation-induced Luciferase activity curve [1]: 112
- AUC [2]: 248
